From PMC13371181, “A paracrine-to-autocrine shunt of GREM1 fuels colorectal cancer metastasis via ACVR1C” (Molecular Cancer, 2026)
Entries after “also recorded” stand apart in the source; their conditions may differ.

Legend:
FGFR1 (Homo sapiens) = FGFR1 (Homo sapiens) (UniProt P11362); details: cited from earlier work
ACVR1C-ECD = experiment: MST binding of ACVR1C-ECD-Fc to GREM1-His or ACTIVIN B-His; parameters: species or system human; details: Monolith NT.115, ACVR1C-ECD-Fc 0–27.5 µM vs 50 nM red-fluorescently labeled His-protein, PBS pH 7.4, premium capillaries, n = 3 independent experiments, mean ± s.e.m.
Text: Expi293F cells were transfected with a pcDNA3.4-ACVR1C-ECD-Fc and pcDNA3.4-ACVR1C-ECD-Fc-double mutant (E85A/T101A) expression vector to produce the target protein, which was subsequently purified using a Protein G column. Briefly, the coding sequence (CDS) of the human ACVR1C extracellular domain (ACVR1C-ECD, NM_145259.3, residues 1–113) fused to an Fc tag was cloned into the pcDNA3.4 vector. Expi293F cells were transfected with this construct, the supernatant was harvested 5 days post transfection.
MST was carried out on a Monolith NT.115 instrument (NanoTemper Technologies GmbH, MO-L011). To evaluate ACVR1C-ECD or ACVR1C peptide or ACVR1C-ECD-double mutant (E85A/T101A) binding to GREM1-His or ACTIVIN B-His, an increasing concentration of purified ACVR1C-ECD-Fc protein (0–27.5 µM) or ACVR1C peptide (0–2.3 µM) or ACVR1C-ECD-double mutant (0–27.5 µM) was incubated with 50 nM red-fluorescently labeled (NanoTemper Technologies GmbH, MO-L011) GREM1-His protein (R&D, 5190-GR) or ACTIVIN B-His protein (SinoBiological, 10814-H08H). Experiments were carried out in a PBS buffer pH 7.4 using premium capillaries (NanoTemper Technologies GmbH, MO-K025).

ACVR1C = experiment: Co-immunoprecipitation of GREM1 and ACVR1C; assay type: binding, human; details: co-IP, truncation or point mutants, HCT116 cells
Experimental: HCT116 cells were transfected with the indicated plasmids and lysed in NP40 lysis buffer (Beyotime, P0013F) supplemented with protease inhibitor cocktail (Thermo, 78446). Lysates were incubated with the indicated Anti-Flag nanobody magarose beads (Ktsm-life, KTSM1338), Anti-HA nanobody magarose beads (Ktsm-life, KTSM1335) or Anti-GFP nanobody magarose beads (Ktsm-life, KTSM1334) overnight at 4 °C. The protein complex was washed four times with the NP40 lysis buffer, eluted with 1×loading buffer (Beyotime, P0015) by boiling for 5 min, followed by mass spectrometry and immunoblotting with the indicated antibodies.
Protein was extracted from the cells with RIPA buffer (Beyotime, P0018) or NP40 lysis buffer (Beyotime, P0013F) and separated by SDS-PAGE, and transferred to polyvinylidene difluoride membranes. Primary antibodies against GREM1 (1:1,000, SinoBiological, 50016-R117), ACVR1C (1:1,000, Thermo, PA587475), Flag-tag (1:1,000, CST, 14793), HA-tag (1:1,000, CST, 3724), E-Cadherin (1:1,000, CST, 3195), β-Catenin (1:1,000, CST, 8480), ZEB1 (1:1,000, CST, 3396), Snail (1:1,000, CST, 3879), SMAD2/3 (1:1,000, CST, 8685), p-SMAD2/3 (1:1,000, CST, 8828), SMAD1 (1:1,000, CST, 6944), p-SMAD1/5/9 (1:1,000, CST, 13820), TGFβ (1:1,000, CST, 3709), TGFβR1 (0.3 µg/mL, R&D, AF3025), β-actin (1:5,000, Beyotime, AF0003) and GAPDH (1:5,000, Beyotime, AF0006) were used in this study. Peroxidase-conjugated secondary antibody (1:10,000, Cell Signaling Technology, 7074, 7076) was used and signal was visualized using an enhanced chemiluminescence assay (ECL, Thermo), according to the manufacturer’s protocol. Band intensity was quantified using Fiji (ImageJ) by grayscale analysis.

[1] = system: CRC cells (SW480, HCT116, and MC38); experiment: GREM1 withdrawal assay, RT–qPCR and immunoblot; assay type: cell-based, human (SW480, mouse (MC38); details: rhGREM1 or rmGrem1 200 ng/mL 24 h, then GREM1-free medium 2 and 4 days
Experimental: To determine whether tumor cells that have acquired signaling autonomy can sustain GREM1 expression in the absence of external stimulation, we performed a GREM1 withdrawal assay. CRC cells (SW480, HCT116, and MC38) were first pulsed with rhGREM1 or recombinant mouse GREM1 (rmGrem1) for 24 h to initiate the signaling response. The medium containing rhGREM1 or rmGrem1 was then thoroughly removed, replaced with fresh GREM1-free medium, and the cells were cultured for an additional 4 days. […] This persistent, self-sustaining expression supports our conclusion that the initial rhGREM1 or rmGrem1 stimulation triggers a positive feedback loop of GREM1 transcription within CRC cells.
Protein was extracted from the cells with RIPA buffer (Beyotime, P0018) or NP40 lysis buffer (Beyotime, P0013F) and separated by SDS-PAGE, and transferred to polyvinylidene difluoride membranes. […] Band intensity was quantified using Fiji (ImageJ) by grayscale analysis.
Total RNA was extracted using Trizol reagent (Invitrogen, 15596026). […] The SYBR Green Premix Pro Taq HS qPCR Kit (Accurate Biology, AG11701) was then used to quantify mRNA expression according to the manufacturer’s instructions. All results were calculated using the 2^−ΔΔCt method. […]

[2] = target: T1, His-tagged full-length GREM1 (recombinant human GREM1-His) (human, UniProt O60565 25-184, red fluorescent label (NanoTemper, MO-L011) in the MST assays); experiment: MST; Monolith NT.115; 50 nM red-fluorescently labelled GREM1-His or ACTIVIN B-His, unlabelled partner titrated (ACVR1C-ECD-Fc or double mutant 0–27.5 µM, ACVR1C peptide 0–2.3 µM); PBS pH 7.4; n = 3; details: both partners purified
T1 construct: also called recombinant GREM1; rhGREM1; source: bought: R&D, 5190-GR
T1 sequence (looked up): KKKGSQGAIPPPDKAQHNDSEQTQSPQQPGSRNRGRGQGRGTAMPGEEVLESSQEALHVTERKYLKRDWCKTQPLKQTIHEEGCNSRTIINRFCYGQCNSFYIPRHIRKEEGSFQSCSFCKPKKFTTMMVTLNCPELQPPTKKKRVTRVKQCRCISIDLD

ACTIVIN B-His = ACTIVIN B-His (UniProt P09529); experiment: as above

Sequence of FGFR1 (Homo sapiens) (P11362 22-376): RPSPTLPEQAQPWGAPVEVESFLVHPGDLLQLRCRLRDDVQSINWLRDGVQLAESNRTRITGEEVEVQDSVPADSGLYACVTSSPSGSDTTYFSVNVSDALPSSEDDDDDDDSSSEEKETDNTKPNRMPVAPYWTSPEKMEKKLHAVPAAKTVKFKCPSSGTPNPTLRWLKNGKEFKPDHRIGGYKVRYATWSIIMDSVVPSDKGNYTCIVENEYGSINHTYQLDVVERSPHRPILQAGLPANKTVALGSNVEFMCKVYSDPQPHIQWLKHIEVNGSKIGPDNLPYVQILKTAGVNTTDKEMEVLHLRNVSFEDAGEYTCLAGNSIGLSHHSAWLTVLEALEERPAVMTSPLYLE

GREM1 (from UniProt O60565)
Kd (FGFR1 (Homo sapiens)): 10.6 nM

ACTIVIN B: a known ligand of ACVR1C; ACTIVIN B-His protein (SinoBiological, 10814-H08H)
Kd (ACVR1C-ECD): 854 ± 127 nM

B1: E85A: ACVR1C single mutant (protein, UniProt Q8NER5 21-493, looked up, variant E85A)
Activin receptor type-1C: ELSPGLKCVCLLCDSSNFTCQTEGACWASVMLTNGKEQVIKSCVSLPELNAQVFCHSSNNVTKTACCFTDFCNNITLHLPTASPNAPKLGPMELAIIITVPVCLLSIAAMLTVWACQGRQCSYRKKKRPNVEEPLSECNLVNAGKTLKDLIYDVTASGSGSGLPLLVQRTIARTIVLQEIVGKGRFGEVWHGRWCGEDVAVKIFSSRDERSWFREAEIYQTVMLRHENILGFIAADNKDNGTWTQLWLVSEYHEQGSLYDYLNRNIVTVAGMIKLALSIASGLAHLHMEIVGTQGKPAIAHRDIKSKNILVKKCETCAIADLGLAVKHDSILNTIDIPQNPKVGTKRYMAPEMLDDTMNVNIFESFKRADIYSVGLVYWEIARRCSVGGIVEEYQLPYYDMVPSDPSIEEMRKVVCDQKFRPSIPNQWQSCEALRVMGRIMRECWYANGAARLTALRIKKTISQLCVKEDCKA
effect of deletion or mutation on GREM1–ACVR1C interaction (ACVR1C): significantly abrogated the GREM1–ACVR1C interaction
effect of deletion or mutation on GREM1–ACVR1C interaction (ACVR1C; listed as AA85 mutant (M2)): impaired

B2: T101A: ACVR1C single mutant (protein)
chain: ELSPGLKCVCLLCDSSNFTCQTEGACWASVMLTNGKEQVIKSCVSLPELNAQVFCHSSNNVTKTECCFTDFCNNITLHLPAASPNAPKLGPMELAIIITVPVCLLSIAAMLTVWACQGRQCSYRKKKRPNVEEPLSECNLVNAGKTLKDLIYDVTASGSGSGLPLLVQRTIARTIVLQEIVGKGRFGEVWHGRWCGEDVAVKIFSSRDERSWFREAEIYQTVMLRHENILGFIAADNKDNGTWTQLWLVSEYHEQGSLYDYLNRNIVTVAGMIKLALSIASGLAHLHMEIVGTQGKPAIAHRDIKSKNILVKKCETCAIADLGLAVKHDSILNTIDIPQNPKVGTKRYMAPEMLDDTMNVNIFESFKRADIYSVGLVYWEIARRCSVGGIVEEYQLPYYDMVPSDPSIEEMRKVVCDQKFRPSIPNQWQSCEALRVMGRIMRECWYANGAARLTALRIKKTISQLCVKEDCKA
modifications: left off: Flag, end not stated, state not stated | GFP, end not stated, state not stated
notes: ACVR1C single mutant
effect of deletion or mutation on GREM1–ACVR1C interaction (ACVR1C): significantly abrogated the GREM1–ACVR1C interaction
effect of deletion or mutation on GREM1–ACVR1C interaction (ACVR1C; listed as AA101 mutant (M3) of ACVR1C): impaired

B3: Q101A/T102A/T112A/N115A quadruple mutation in GREM1: GREM1 point mutant (protein)
chain: KKKGSQGAIPPPDKAQHNDSEQTQSPQQPGSRNRGRGQGRGTAMPGEEVLESSQEALHVTERKYLKRDWCKTQPLKAAIHEEGCNSRAIIARFCYGQCNSFYIPRHIRKEEGSFQSCSFCKPKKFTTMMVTLNCPELQPPTKKKRVTRVKQCRCISIDLD
modifications: left off: HA, end not stated, state not stated | mCherry, end not stated, state not stated
notes: GREM1 point mutant
effect of deletion or mutation on GREM1–ACVR1C interaction (ACVR1C): significantly abrogated the GREM1–ACVR1C interaction
effect of deletion or mutation on GREM1–ACVR1C interaction (ACVR1C; listed as AA101/102/112/115 mutant (M3) of GREM1): impaired

B4: rmGrem1: recombinant mouse GREM1 (protein, UniProt O70326 25-184, looked up)
Gremlin-1: KKKGSQGAIPPPDKAQHNDSEQTQSPPQPGSRTRGRGQGRGTAMPGEEVLESSQEALHVTERKYLKRDWCKTQPLKQTIHEEGCNSRTIINRFCYGQCNSFYIPRHIRKEEGSFQSCSFCKPKKFTTMMVTLNCPELQPPTKKKRVTRVKQCRCISIDLD
endogenous GREM1 expression after withdrawal [1]: not only maintained but in some cases further increased even after the withdrawal of exogenous GREM1; also recorded: maintained elevated endogenous GREM1 expression even after withdrawal of exogenous GREM1

TECCFTDFCNNITLHLPTA (peptide, UniProt Q8NER5 84-102, looked up, ACVR1C, human, residues 84–102) [ACVR1C peptide (amino acid residues 84–102 of ACVR1C)]
Kd [2]: 92.3 nM

B5: Fc-tagged ACVR1C extracellular domain (ACVR1C-ECD, AA1–113) (Fc fusion, human, UniProt Q8NER5-1 21-113, looked up)
chain: ELSPGLKCVCLLCDSSNFTCQTEGACWASVMLTNGKEQVIKSCVSLPELNAQVFCHSSNNVTKTECCFTDFCNNITLHLPTASPNAPKLGPME
notes: signal peptide in the construct; Vector pcDNA3.4; also called ACVR1C-ECD-Fc; recombinant human ACVR1C-ECD and Fc chimera protein; source: Expi293F, transfected, purified from supernatant (Protein G column, ion exchange)
Kd [2]: 67.7 nM
Kd (ACTIVIN B-His): 854 nM
